{
  "source": "paper PMC11014345",
  "about": "“Lethal perturbation of an Escherichia coli regulatory network is triggered by a restriction-modification system's regulator and can be mitigated by excision of the cryptic prophage Rac” (Nucleic Acids Research, 2023)",
  "biological_target": "the molecule itself",
  "experiment": "SEC; Superdex 75 10/300 GL, 0.5 mg protein loaded, 50 mM potassium phosphate buffer pH 7.0, 150 mM NaCl, 0.5 ml/min; column calibrated with marker proteins; self-association of RacR (octamer)",
  "data": [
    {"protein": "C-terminally-6His-tagged RacR repressor (natural protein, Escherichia coli K-12 (Rac prophage), UniProt P76062 1-158, looked up, RacR repressor of the cryptic Rac prophage of Escherichia coli K-12; predicted size of the 6His-tagged monomer 18.5 kDa; not shown: 6His, C-terminal, kept) MLSGKDLGRAIEQAINKKIASGSVKSKAEVARHFKVQPPSIYDWIKKGSISKDKLPELWRFFSDVVGPEHWGLNEYPIPTPTNSDTKSELLDINNLYQAASDEIRAIVAFLLSGNATEPDWVDHDVRAYIAAMEMKVGKYLKALESERKSQNITKTGT", "values": [
      {"measurement": "stoichiometry N", "result": 8}
    ]}
  ]
}
